Measured values from the supplement of paper PMC7125110.
± gives the standard error. Variants at the floor of the assay were thinned out.

B1: glmS ribozyme (parent)
chain: AUAAAAGCGCCAGAACUACAGAAAUGUAGUUGACGAGGAGGAGGUUUAUCGAAUUUUCGGCGGAUGCCUCCAAA

Experiments:
Details in all cases: with glucosamine-6-phosphate
glucosamine-6-phosphate [1] = variants of: B1; test: self-cleavage kobs at 40 uM GlcN6P; higher = faster cleavage; RNA array
Outline: (§1)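 Over ~14 h at 37 °C, tiles were imaged as glucosamine-6-phosphate (40 μM to 10 mM) in HEPES/KCl/Mg(OAc)2 buffer flowed across sequenced MiSeq chips. The chips carried barcoded ribozyme variants transcribed in situ by E. coli RNA polymerase and tracked with a hybridised Cy3 probe. After normalisation to baseline and to non-cleaving reference variants, one- or two-exponential decay fits of per-tile medians gave kobs. kcat and KM followed from weighted Michaelis–Menten fits across concentrations.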

glucosamine-6-phosphate [2] = variants of: B1; test: self-cleavage kobs at 2500 uM GlcN6P; higher = faster cleavage; RNA array
Outline: as §1

glucosamine-6-phosphate [3] = variants of: B1; test: self-cleavage kobs at 10000 uM GlcN6P; higher = faster cleavage; RNA array
Outline: as §1

glucosamine-6-phosphate [4] = variants of: B1; test: self-cleavage kobs at 160 uM GlcN6P; higher = faster cleavage; RNA array
Outline: as §1

glucosamine-6-phosphate [5] = variants of: B1; test: self-cleavage kobs at 640 uM GlcN6P; higher = faster cleavage; RNA array
Outline: as §1

Variant | self-cleavage kobs at 40 uM GlcN6P (glucosamine-6-phosphate [1]) | self-cleavage kobs at 2500 uM GlcN6P (glucosamine-6-phosphate [2]) | self-cleavage kobs at 10000 uM GlcN6P (glucosamine-6-phosphate [3]) | self-cleavage kobs at 160 uM GlcN6P (glucosamine-6-phosphate [4]) | self-cleavage kobs at 640 uM GlcN6P (glucosamine-6-phosphate [5])
C10U G43C C50U C70U | < 1e-05 s⁻¹ | < 1e-05 s⁻¹ | < 1e-05 s⁻¹ |  | 
C8U G43A | < 1e-05 s⁻¹ |  |  | < 1e-05 s⁻¹ | 
C8A A52C | < 1e-05 s⁻¹ |  | < 1e-05 s⁻¹ | < 1e-05 s⁻¹ | < 1e-05 s⁻¹
U65G C71A | 4.51e-05 ± 1.7e-05 s⁻¹ | 0.000938 ± 0.00015 s⁻¹ | 0.00276 ± 0.00056 s⁻¹ | 6.43e-05 ± 2e-05 s⁻¹ | 0.000497 ± 5.7e-05 s⁻¹
G13C G43U A52U | < 1e-05 s⁻¹ | < 1e-05 s⁻¹ | < 1e-05 s⁻¹ |  | < 1e-05 s⁻¹
C8G A36G | < 1e-05 s⁻¹ |  | < 1e-05 s⁻¹ | < 1e-05 s⁻¹ | < 1e-05 s⁻¹
C8A C11G U46G | < 1e-05 s⁻¹ |  | < 1e-05 s⁻¹ |  | 
C8A A12U A39G | < 1e-05 s⁻¹ |  | < 1e-05 s⁻¹ |  | < 1e-05 s⁻¹
C10A G60A | < 1e-05 s⁻¹ | < 1e-05 s⁻¹ |  | < 1e-05 s⁻¹ | < 1e-05 s⁻¹
G29U G37C A42U | < 1e-05 s⁻¹ | < 1e-05 s⁻¹ |  |  | < 1e-05 s⁻¹
A6C A12U U30A A48C | < 1e-05 s⁻¹ |  | < 1e-05 s⁻¹ |  | 
G9A G38C | < 1e-05 s⁻¹ |  |  | < 1e-05 s⁻¹ | < 1e-05 s⁻¹
A14G C34A G38U | < 1e-05 s⁻¹ |  |  |  | 
A52U G63C A64U | < 1e-05 s⁻¹ | < 1e-05 s⁻¹ |  |  | 
G13C G44U | < 1e-05 s⁻¹ | < 1e-05 s⁻¹ | < 1e-05 s⁻¹ | < 1e-05 s⁻¹ | < 1e-05 s⁻¹
C50G G51U | < 1e-05 s⁻¹ |  |  | < 1e-05 s⁻¹ | 
A42G G43C | < 1e-05 s⁻¹ |  | < 1e-05 s⁻¹ |  | < 1e-05 s⁻¹
G60C C71G | < 1e-05 s⁻¹ |  | < 1e-05 s⁻¹ | < 1e-05 s⁻¹ | 
C10A A15U C16U C34U | < 1e-05 s⁻¹ |  |  |  | 
G9A G44A C67A | < 1e-05 s⁻¹ |  |  |  | 
A48U A64C C67U | < 1e-05 s⁻¹ |  | < 1e-05 s⁻¹ |  | < 1e-05 s⁻¹
A6C A12C G59C | < 1e-05 s⁻¹ |  | < 1e-05 s⁻¹ |  | < 1e-05 s⁻¹

Variant | self-cleavage kobs at 40 uM GlcN6P (glucosamine-6-phosphate [1]) | self-cleavage kobs at 2500 uM GlcN6P (glucosamine-6-phosphate [2]) | self-cleavage kobs at 10000 uM GlcN6P (glucosamine-6-phosphate [3]) | self-cleavage kobs at 160 uM GlcN6P (glucosamine-6-phosphate [4]) | self-cleavage kobs at 640 uM GlcN6P (glucosamine-6-phosphate [5])
G35C C50U G51C | < 1e-05 s⁻¹ | < 1e-05 s⁻¹ | < 1e-05 s⁻¹ | < 1e-05 s⁻¹ | < 1e-05 s⁻¹
C16A G59C | < 1e-05 s⁻¹ |  |  |  | < 1e-05 s⁻¹
C8A C34U U47C C67U | < 1e-05 s⁻¹ |  | < 1e-05 s⁻¹ |  | 
C8U A14G | < 1e-05 s⁻¹ | < 1e-05 s⁻¹ |  | < 1e-05 s⁻¹ | 
C16A G35U G43C C68U | < 1e-05 s⁻¹ |  |  | < 1e-05 s⁻¹ | < 1e-05 s⁻¹
G29U C71U | 0.000132 ± 1.2e-05 s⁻¹ | 0.00226 ± 0.00052 s⁻¹ | 0.00363 ± 0.00043 s⁻¹ | 0.000298 ± 2.9e-05 s⁻¹ | 0.000578 ± 0.0001 s⁻¹
G7C U31G G43A U55G C68U | < 1e-05 s⁻¹ |  |  |  | 
A53U G59U | < 1e-05 s⁻¹ |  | 4.13e-05 ± 7.7e-06 s⁻¹ |  | 
A36U U49G U65A | < 1e-05 s⁻¹ |  |  |  | 
A12U C34G G40C C50A | < 1e-05 s⁻¹ | < 1e-05 s⁻¹ |  | < 1e-05 s⁻¹ | < 1e-05 s⁻¹
U31G A33G U56C | < 1e-05 s⁻¹ | < 1e-05 s⁻¹ |  | < 1e-05 s⁻¹ | < 1e-05 s⁻¹
A36G C58U C70U | < 1e-05 s⁻¹ |  |  | < 1e-05 s⁻¹ | < 1e-05 s⁻¹
C8A C11G | < 1e-05 s⁻¹ | < 1e-05 s⁻¹ | < 1e-05 s⁻¹ | < 1e-05 s⁻¹ | < 1e-05 s⁻¹
A14U G38A U45G G63C | < 1e-05 s⁻¹ |  |  |  | 
A52G C61G | < 1e-05 s⁻¹ |  | < 1e-05 s⁻¹ |  | 
U30C C50A A53G U69C C70G | 5.5e-05 ± 1.9e-05 s⁻¹ |  |  |  | 
U55C C61U | < 1e-05 s⁻¹ |  |  |  | 
C10A C34G | < 1e-05 s⁻¹ | < 1e-05 s⁻¹ | < 1e-05 s⁻¹ |  | < 1e-05 s⁻¹
G9C G13U G41U G63U | < 1e-05 s⁻¹ |  | < 1e-05 s⁻¹ |  | 
U47A G62U | < 1e-05 s⁻¹ | < 1e-05 s⁻¹ | < 1e-05 s⁻¹ | < 1e-05 s⁻¹ | < 1e-05 s⁻¹
G9U G41A | < 1e-05 s⁻¹ | < 1e-05 s⁻¹ | < 1e-05 s⁻¹ | < 1e-05 s⁻¹ | < 1e-05 s⁻¹
G7A G66U | < 1e-05 s⁻¹ | < 1e-05 s⁻¹ | < 1e-05 s⁻¹ | < 1e-05 s⁻¹ | 
